For this experiment, the target named is PfCelTOS. Kind of experiment: cross-linking.

In general, stoichiometry N refers to a count of units in the complex or per binding partner. Substance PfCelTOS (natural protein) returned a stoichiometry N of 2.

These data come from article doi:10.1101/2022.09.01.504486.
